Assay results taken from doi:10.1101/781922 (bioRxiv, 2019).

Target: T1, Arabidopsis TIR1, coexpressed with AtASK1 (His10-eGFP-FLAG-(TEV)-AtTIR1 and His10-(TEV)-AtASK1) (Arabidopsis, UniProt Q570C0;Q39255)
T1 sequence 1: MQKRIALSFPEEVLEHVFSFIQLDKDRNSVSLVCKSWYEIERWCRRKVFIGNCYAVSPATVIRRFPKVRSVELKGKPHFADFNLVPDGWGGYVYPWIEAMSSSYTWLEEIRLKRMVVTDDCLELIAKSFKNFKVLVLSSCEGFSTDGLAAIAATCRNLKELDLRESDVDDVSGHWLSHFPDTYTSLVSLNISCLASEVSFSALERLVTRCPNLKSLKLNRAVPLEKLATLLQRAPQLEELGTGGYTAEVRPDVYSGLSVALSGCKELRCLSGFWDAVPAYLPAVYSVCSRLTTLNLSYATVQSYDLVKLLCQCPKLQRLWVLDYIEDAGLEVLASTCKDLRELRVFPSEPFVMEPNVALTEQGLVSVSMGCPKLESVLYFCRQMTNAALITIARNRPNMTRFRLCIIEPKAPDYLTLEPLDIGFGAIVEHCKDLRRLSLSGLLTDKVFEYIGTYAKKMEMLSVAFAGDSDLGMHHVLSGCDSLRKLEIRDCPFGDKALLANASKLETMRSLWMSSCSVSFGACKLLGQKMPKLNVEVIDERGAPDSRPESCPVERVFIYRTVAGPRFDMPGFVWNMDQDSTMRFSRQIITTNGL
T1 sequence 2: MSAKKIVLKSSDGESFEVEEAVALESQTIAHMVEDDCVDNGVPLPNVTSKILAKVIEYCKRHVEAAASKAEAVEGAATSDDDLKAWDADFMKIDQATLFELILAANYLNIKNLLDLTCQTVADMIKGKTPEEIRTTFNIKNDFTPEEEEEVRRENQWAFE
Test: NMR titration

B1: AXR3 DI/DII (N-terminal half, domains I and II, of the Aux/IAA protein AXR3/IAA17) (domain or fragment)
chain: MMGSVELNLRETELCLGLPGGDTVAPVTGNKRGFSETVDLKLNLNNEPANKEGSTTHDVVTFDSKEKSACPKDPAKPPAKAQVVGWPPVRSYRKNVMVSCQ
binding result: binds
